Target: native myeloperoxidase monomer (one heavy and one light chain) (human) (UniProt P05164)
Test: mass photometry; native MPO 100 nM in 20 mM HEPES pH 7.5, 200 mM NaCl, without or with 10 or 50 mM DTT, diluted 1:10 before measuring; dimer to monomers

stoichiometry N: 2
Substance: native myeloperoxidase monomer (one heavy and one light chain) (from UniProt P05164 279-745) (enzyme)

— article PMC12629992
